Test results reported in patent US20180044653A1, “Mutant Yeast Strain Capable of Degrading Cellobiose” (Institut National de la Recherche Agronomique, priority 2015, published 2018).

What was measured:
[1] = system: S. fibuligera β-glucosidase Bgl1; conditions: Yan and Lin, 1997; cited from earlier work
A. niger β-glucosidase = conditions: Yan and Lin, 1997; cited from earlier work
[2] = Substrate specificity, aryl-glycoside; assay type: biochemical
Text: (§1) When using aryl-substrates, the standard assay method was employed, simply replacing pNPGlc by another substrate as appropriate. For oligosaccharides, the release of glucose was quantified using an enzyme kit (D-Fructose/D-Glucose Assay Kit, liquid stable, Megazyme).

[3] = Michaelis-Menten kinetics (glucose release); assay type: biochemical; conditions: cellobiose
Text: as §1

[4] = Specific activity on cellobiose; assay type: biochemical
Text: as §1

[5] = Subcellular fractionation and enzyme localization, activity assayed with pNPGlc; assay type: biochemical, Y. lipolytica; conditions: for Relative enzyme activity, Cytoplasm: fraction: Cytoplasm; for Relative enzyme activity, Growth medium: fraction: Growth medium; for Relative enzyme activity, Membrane: fraction: Membrane; for Relative enzyme activity, Periplasm: fraction: Periplasm; for Relative enzyme activity, Total: fraction: Total
Protocol: Fractionation of yeast cells was carried out as described by Cummings and Fowler (1996), with slight modifications. Briefly, yeasts were cultivated until a cellular density of 6×10^7 cells/mL was reached. Then, to quantify total β-glucosidase activity, a 50 mL sample was taken and subjected to centrifugation at 8,000×g for 5 min at 4° C. thus isolating a cell pellet and supernatant. The cell pellet was disrupted in Tris-HCl buffer (50 mM, pH 7.4, 3 mM EDTA and 0.5 mM PMSF) using a MP FastPrep-24 Instrument (MP Biomedicals Inc.). β-Glucosidase activity in both the cell lysate and the supernatant was determined as described earlier in order to estimate total β-glucosidase activity. Using a second 50 mL yeast culture, a cell pellet containing approximately 2×10^8 cells/mL was obtained by centrifugation and then treated with zymolyase 100T at 10 mg/mL (Seikagaku corp roger) in 15 mL of sorbitol buffer (1 M sorbitol, 50 mM Tris-HCl, pH 7.4, 2 mM dithiothreitol, 10 mM MgCl2, 20 mM-sodium azide, 0.5 mM PMSF) at 30° C. with gentle shaking. Protoplast formation was monitored using a microscope until ≧99% of the cells was lysed when. SDS was added (1% SDS w/v). The solid protoplast fraction was then separated from the supernatant by centrifugation (1000 rpm for 5 min at 4° C.) and the latter was designated as the periplasmic fraction. The protoplasts were re-suspended in Tris-HCl buffer (50 mM Tris-HCl, pH 7.4) and disrupted by vortex in the presence of glass beads (0.4-0.45 mm). The homogenate was centrifuged (20,000×g for 2 h at 4° C.) and the supernatant and solid fractions were designated as the cytoplasmic and membrane fraction respectively. Prior to enzyme assays, the membrane fraction was suspended in citrate buffer.
Activity was assayed with pNPGlc.

[6] = Optimal temperature and pH for activity; assay type: biochemical; conditions: pNPGlc
Protocol: (§2) Optimal temperatures and pH for the activity of Bgl1-His6 and Bgl2 were determined using pNPGlc as the substrate. Assays were either performed at pH 5.0 and various temperatures (30-70° C.), or at 30° C. in variable pH conditions (2.0 to 8.0) using either 50 mM glycine-HCl (pH 2.0), 50 mM citrate/acetate (pH 3.0-7.2), or potassium phosphate (pH 7.0-8.2) buffer. When the temperature was varied, the pH of the citrate buffer was adjusted accordingly. Stability of Bgl1-His6 and Bgl2 depending on pH and temperature was analysed as follows: enzymes were incubated at 30° C. for up to 2 h at various pH values (2.0 to 8.0), or at various temperatures (30-70° C.) for up to 2 h in 50 mM citrate buffer, pH 5.0. Residual glucosidase activity was then assayed at 30° C. in 50 mM citrate buffer, pH 5.0.

[7] = β-Glucosidase activity, release of pNP from pNPGlc; assay type: biochemical; conditions: for Specific activity: pNPGlc; for activity on pNPGlc of purified enzyme: preliminary characterization, pNPGlc as substrate
Protocol: β-Glucosidase activity was measured by quantifying the release of pNP (p-nitroplienol) from pNPGlc as described previously (Guo et al., 2011). One unit of pNPGlcase activity was defined as the amount of enzyme required to release 1 μmol pNP per min. Cellobiose phosphorylase activity was assayed by measuring the formation of Glc-1P from cellobiose as described previously (Reichenbecher et al., 1997). One unit of activity (U) was defined as the amount of enzyme required to release 1 μmol Glc-1P per min. All protein concentrations were measured using the Bradford method and bovine serum albumin as a standard (Bradford, 1976).

[8] = Stability depending on pH and temperature (residual glucosidase activity); assay type: physicochemical
Protocol: as §2

For `OC[C@H]1O[C@@H](O[C@H]2[C@H](O)[C@@H](O)C(O)O[C@@H]2CO)[C@H](O)[C@@H](O)[C@@H]1O` (stereo partly drawn) [Cellobiose], the Km [1] is listed as 2800 µM and the Km (A. niger β-glucosidase) is listed as 2700 µM.

B1: Bgl2: β-glucosidase of Y. lipolytica encoded by BGL2 (YALI0B14289g), SEQ ID NO: 6, secreted to the culture medium (protein, listed as Yarrowia lipolytica)
chain: MLAFVLLLTMLLAAALADPFSDKDAYKHSPPYYPAPEIGRVPTDLRWRAALKVAQGMVANMTLLEKVNITTGTGWEMGPCVGNTGTVERLGIKSLCLQDGPLGIRFADLITTFPAGITIASTFSRQLVRERGAAMGRENRRKGVDITLSPVVGPLGRHANGGRIWEGFSADPYLAGKLAAEAVTGIQGQNVMAVVKHMVGNEQEHFRQLGEWQGFGFKDLKQPLSSNIDDRTLNEAYLWPFADAVRANVGSVMCSYQQINGSQGCQNAHILNGKLKEEMGFQGFVMSDWLAQRSGVASVLAGLDMSMPGDGLVWADGVPLMGYELTRSVLNGTIDESRVDDMVTRILTPILYLSITPTDPNFSSWTNDTTSYKYYGAKAGGNVTVNRHIDVRDQYTTKAALDGANAALVLLKNEKKTLPLNPTNIGNLNIFGIGSKTGPLGAVCGENMQCSDGALIEGWGSGSVYPTDYQSPYDAIKERASKDNITIGGTTQSWGNLSNVEILSAAADASVVFVLSDSGESTGIVDGNIGDRNNLTLWHNGDEVVKAVASKNPNTIVVVTTVGPVNLEKWIDNPNVTAVLLTGPAGDFGGRAAASILFGDIAPSGKLPFTIAKNDTDYIPLTTKIPEDGLPQDYFTEGTLLDYKRFDENQVTPRFEFGYGLSYSNITVENLEARYAFPSIPEFLPTPFAPSNPNKPKNAFTPHANESVFPSDIDPLNKYVYPYLNDTSEIFSNETHYPYPEGYSSEQSNSTNINGGAVGGNPALWLSAVYIVHSVSNYGPYDTGVVTQMYIAFPQDNDDLKTAPRQLRGFERSELKVGERQGILYDVQWRDLAVWDVKLQSWRVQRGEYKVYVGHSSRDFVLTTSFTLK
With B1 the “activity on pNP-α-D-glucopyranoside” value [2] was “Neither enzyme displayed activity”, the “activity on pNP-β-D-galactopyranoside” value [2] was “Neither enzyme displayed activity” and the “activity on pNP-β-D-cellobioside relative to pNPGlc” value ([2]; activity on pNPGlc as benchmark) was 27%. For the same molecule, the “KM fold lower than those of β-glucosidases from S. fibuligera and A. niger” value [3] was about 4 fold, the “specific activity on cellobiose” value [4] was 25 units/mg protein and the “Relative enzyme activity, Cytoplasm” value [5] was 4.8 ± 0.8%. The “Relative enzyme activity, Growth medium” value [5] was 79.6 ± 1.2%, the “Relative enzyme activity, Membrane” value [5] was 3.7 ± 0.3% and the “Relative enzyme activity, Periplasm” value [5] was 25.8 ± 1.0%. The “Relative enzyme activity, Total” value [5] was 100%, the “pH of highest activity” value ([6]; 30° C.) was 4.0 and the “temperature of highest activity” value ([6]; pH 5.0) was 50 °C. The “decrease in specific activity after deglycosylation” value ([7]; endoglycosidase H treatment, pNPG) was 60%, the Specific activity ([7]; purification step: Culture filtrate) was 0.23 U/mg and the Specific activity ([7]; purification step: Gel filtration) was 25.8 U/mg. For the same molecule, the Specific activity ([7]; purification step: Ion exchange) was 2.0 U/mg, the Specific activity ([7]; purification step: Ultra filtration) was 0.26 U/mg and the “activity on pNPGlc of purified enzyme” value [7] was 25.8 U/mg. The enzyme activity remained ([8]; 30° C. and 40° C. at pH 5) was 100%, the “pH range in which enzyme is stable” value ([8]; 30° C., up to 2 h) was 3.5-7.0 and the enzyme activity remained ([8]; pH 4.0, 5.0 and 6.0 at 30° C.) was 100%. The “temperature below which enzyme is stable” value ([8]; pH 5.0, up to 2 h) was “below 50 °C”.

B2: Bgl1: β-glucosidase of Y. lipolytica encoded by BGL1 (YALI0F16027g), SEQ ID NO: 4, mainly periplasmic (protein, listed as Yarrowia lipolytica)
chain: MIFSLQLLLTTALAASSPDWYPTPEIGSITSDWADALGESMDILAQLTLPEKVNITTGTGWRGGQCVGNTGAVPRLGIKGLCLQDGPLGVRFADFVNVFPCQNAMAATFDRILVHQRGTAIGRQSRLKGVDVHLGPVVGPLGRHATGGRNWEGFSPDPYLSGKLAFEAILGVQEEGVLATIKHFIGNEQEHYRRAEEWRDGFGFKDLKDAVSSNIEDRALHELYMWPFADAVRANVGSVMCSYNYVNGTQACQNSDLLNGKLKSELGFQGFVMSDWFAQGSGVSNALAGMDMSMPGNDVDELETVFWGEQLTRMVANGTLPEARLDDMVLRILTPLIYFGIDDRTPNFSSFVDTTVGSPHPAAKHSKKVKDVITNYHLDVRDQFAANVALDSARGAVVLLFNDGILPLKNISAIGVFGVGSRLGPNGAVCGENMQCSDGALIEGWGSGTAYPTEYESPYEALHKKASLLEVSVTGTTESWDMRLPLELAGDTDVNIVYVLANSGESTANVDKNLGDRRNVSLWHNGDELINTVASQGQTVVVVTTVGQVDMTAWLNHPNISAVLLTAPAGDYGGKAIADVLFGEVNPSGKLPYTIAANTSDYIPIVTKIPRDGAPQSDFVEGIYLDYKWYDKFERTPLYEFGYGLSYTTYSFSNLHLDVKEISEFLPPRPVPVQVTKPKMTNIDIEDLYVPNDFKMIDGLVYPWILNASAPLADSQTQFPFANGAGHVSDASGGVGGHPWLWSNAVTVTHNTTNCGDVAGRVVSQLYVAFPETLIDSPPVQLRGFDKSKLLNPGESQMTEYNLNWRDLAIWDVELQSWRVQRGEYSVYIGHSSREFELCETFTL
For B2, the “KM fold lower than those of β-glucosidases from S. fibuligera and A. niger” value [3] was “approximately 10 fold”, the “specific activity on cellobiose” value [4] was 108 units/mg protein and the “Relative enzyme activity, Cytoplasm” value [5] was 30.0 ± 0.5%. The “Relative enzyme activity, Growth medium” value [5] was 2.3 ± 0.4%, the “Relative enzyme activity, Membrane” value [5] was 8.1 ± 0.7% and the “Relative enzyme activity, Periplasm” value [5] was 60.7 ± 1.0%. The “Relative enzyme activity, Total” value [5] was 100%, the “fold more active on pNPGlc than Bgl2” value [7] was 5 fold and the “activity on pNPGlc of purified enzyme” value [7] was 102.8 U/mg.
